The target of the assay is GST (UniProt P08515 1-218 = GST). The assay is described as follows: pull-down on glutathione sepharose, Western blot with anti-T7.
GST, sequence (P08515 whole entry): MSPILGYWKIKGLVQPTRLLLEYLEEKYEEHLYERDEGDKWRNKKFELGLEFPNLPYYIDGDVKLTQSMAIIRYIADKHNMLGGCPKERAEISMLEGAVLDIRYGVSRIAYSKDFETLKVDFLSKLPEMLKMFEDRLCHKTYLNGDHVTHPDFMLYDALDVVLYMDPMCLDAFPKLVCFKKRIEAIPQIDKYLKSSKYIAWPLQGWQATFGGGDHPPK

B1: T7-ATR41-227 (fusion protein having a hexahistidine tag, a T7 tag, and amino acids 41 to 227 of ATR) (receptor)
chain: GGFDLYFILDKSGSVLHHWNEIYYFVEQLAHKFISPQLRMSFIVFSTRGTTLMKLTEDREQIRQGLEELQKVLPGGDTYMHEGFERASEQIYYENRQGYRTASVIIALTDGELHEDLFFYSEREANRSRDLGAIVYCVGVKDFNETQLARIADSKDHVFPVNDGFQALQGIIHSILKKSCIEILAAE
notes: also called the I domain; extracellular fragment of ATR
In the case of B1, the binding result is reported as “no binding”.

Source of the values: US20060110801A1 (WISCONSIN ALUMNI RESEARCH FOUNDATION, published 2006).
